The record followed here is the nanobody polyreactivity screen of Harvey et al. (2022).

The data set can be described thus: yeast display, Sf9 membrane polyspecificity reagent, FACS + sequencing; frameworks hold sequencing errors. The gist of the method: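 Genes from sorted yeast were amplified by colony PCR, read by MiSeq 2 × 250 sequencing and filtered on CDR length. These cells carried a synthetic nanobody library in Saccharomyces cerevisiae BJ5465 and were sorted by FACS into low and high (top ~1%) gates on anti-HA and streptavidin fluorescence. Polyreactivity is labelled according to the gate of origin.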
Regarding “QVQLVESGGGLVQAGGSLRLSCAASGFTFPRYAMGWYRQAPGKERELVAAISYRGGSTYYADSVKGRFTISRDTAKNTVYLQMNSLKPEDTAVSYCNAVGGPVRGYPYDYWGQGTQVTVSS”, the “polyreactivity (PSR sort gate)” value is listed as “high polyreactivity”. Consider “QVQLVESGGGLLQAGCSLRISCAASGFIFYKYVMGWYRPAPGKERELVAAINWSGGSTYYADSVKGRFTISRDNAKNTVYLQMNSLKQEDTAVYYCNAARRSKGGLNDYYWGQGTQVTVSS”, for which the “polyreactivity (PSR sort gate)” value was “high polyreactivity”. In the case of “QVQHVQSGGGLVQAGGSLRLSCAASGRTNPFYAMGWYRQAPGKERELVAAISSSAGRTYYADSVKGRFTISRDNAKNTFYFEMNSLKPEDTAVYYCAARLYGRYRYDYWGQGTQVTVSS”, the “polyreactivity (PSR sort gate)” value is given as “low polyreactivity”.

Take “QVQLVETGGGLVQAGGSLRLSCAASGSIFLYYAMGWYRQAHGKERELVAAITSGGSTNYADSVKGRFTISRDNAKNTVYLQMNSLKPEDTAVYYCAARHPYRFWGQGTKVTVSS”: the “polyreactivity (PSR sort gate)” value is on record as “high polyreactivity”. Take “QVQLVESGGGLVQAGGSLRLRCAASGSIFPWYAMGWYRQAPGKERELVAAITISGGSTHYADSVKGRFTISRDNAKNTVYLQMNCLKPEDTAVYYCATPRYPSYDYWGQGTQVTVSS”: the “polyreactivity (PSR sort gate)” value is listed as “low polyreactivity”. As to “QVQLVESGGGIVQAGGSLRLSCAASGFTFDYYAMGWYRQAPGKERELVAAISWRGTTTYYADSVKGRFTISRDNAKNTVYLQMNSLKPEDTAVYYCAADSLFGHYDYWGQGTQVTVSS”, the “polyreactivity (PSR sort gate)” value is on record as “low polyreactivity”. In the case of “QVQLVESGGGLVQAGGSLRLSCAASGRTFEHYAMVWYRPAPGKERELVAAITWSGVSTYYADSVKGRFTISRDNAKNTVYLQMNSLKPEDTAVYYCAAKWLGYGFDYWGQGTQVTVSS”, the “polyreactivity (PSR sort gate)” value was “low polyreactivity”.

With “QVQLQESGGGLVQAGGSLRLSSAASGNFFDADIIGRYRQAPGKERELVASITDGGSTNYADSVKGRFTISRDDTRNTVHLQMNSLYPEDTAVYYCAAIAYPDIPTYFDYDSDYSYWGQGTQVTVSS”, the “polyreactivity (PSR sort gate)” value was “high polyreactivity”. In the case of “QVQLVESGGGLVQAGGSLRLSCAASGRIFYRNAMGWYRQAPGQERELVAAISKSGGSTYYADSVKGRFTISRDNAKNTVYLQMNSLKPEDTAVYYSAAGTRRTDGYSWGQGTQVTVAS”, the “polyreactivity (PSR sort gate)” value is listed as “high polyreactivity”. Consider “QVQLVETGGGLFQAGVSLRLSCAASGSTFDGYVMGWYRQAPGKERELVAAISGSGGSTYYADSVKGRFTISRDHAQNTDYLQMISLKPEDTAVYYCAADSWWYDDYSEGDYWGQGTQVTVSS”, for which the “polyreactivity (PSR sort gate)” value was “low polyreactivity”.

With “QVQLVESGGGLVQAGGSLRLSCAASGRTFYYYAMGWYRHAPGKERELVAAISIGGITYADSVKGRFTISRDNAKNTVYLQMNSLKPEDTAVYYCAATARQSRGRFYWGQGTQVTVSS”, the “polyreactivity (PSR sort gate)” value is given as “low polyreactivity”.

Regarding “QVQLVESGRGLVQAGGSLRLSCAASGSIFSSYAMGWYRQAPGKERELVAAITWSGGRTYYADSVKGRFTISRDNAKNTVYLQMNSLKPEDTAVYYCNAVYLAYGGDYWGQGTQVTVSS”, the “polyreactivity (PSR sort gate)” value is “high polyreactivity”. In the case of “QVQLVESGGGLVQAGGSLRLSCAASGITFDGYAMGWYRQAPGKERELVAAISISGASTYYADSVKGRFTISRDNAKNTVYLQKNSLKPEDTAVYYCAASSWINQYPGDYWGQGTQVTVSS”, the “polyreactivity (PSR sort gate)” value is “high polyreactivity”. Under “QVQLVESGGGLVQAGGSLRLSCAASGYTFQGYAMGWYRQAPGKERELVAGISRSGGRTYYADSVKGRFTISRDNAKNTVYLQMNSLKPEDTAVYYCAASYQVRYDYWGQGTQVTVSS” stands “high polyreactivity”; under “QVQHVESGGGLVQAGGSLRLSCAASGSIISYYAMGWSRQQPGKERELVAAITANGGSTSYADSVKGRFTISRDNAKNTVYLQMNSLKPEVTAVYYCAKESDYPYYVSTKGDYDYWGQGTQVTVSS”, “low polyreactivity”; under “QVQLVESRGGLVQAGGSLRLSCAASGRTFLYNAMGWYRQAPGKERELVAAITDGGNTYYADSVKGRFTISRDNAKNTVYLHMKSLNPEDTAVYYCNAYVLFYTYFTRGRFDFDYWGQGTQVTVSS”, “low polyreactivity”.

In the case of “QVQLVESGGGLVQAGGSLRLSCAASGSTFLTYAMGWYRQAAGKERELVAGISYSTGSTYYADSVKGRFTISRDNAKNTVYLQMNSLKPEDTAVYYCAADEWDGLWYYYYFNYEDWGQGTQVTVSS”, the “polyreactivity (PSR sort gate)” value is “low polyreactivity”. Under “QVQLVESGGGLVQAGGSLRLSCAASGSIFDDYAMGWYRQAPGKERELVATITSGDTTNYADSVKGRFTISRDNAKNTVYLQMNSLKPEDTAVYYCAADYLTSRSRTFDYWGQGTQVTVSS” stands “low polyreactivity”; under “QVQLVESGGGLVQAGGSLRLSCAASGSIFGYYAMGWYRQAPGNERELVAAISRSGGSTYYADSVKGRFTISRDNAKNTVYLQMNSLKPEDTAVYYCAADDYPYGNYYWGQGTQVTVSS”, “high polyreactivity”; under “QVQLVESGGGIVQAGGSLRLSCAASGSTFETNAMGRDRQAPGKERELVAAIRWSTGNTYYADSVNGRFTISRDNAKNTVYLQMNSLITEDTAVYYCAAYKAKHYKDGYWGQGTQVSVSS”, “low polyreactivity”.

“QVQLVESGGGLVQAGGSLRLSCAASGFTIFEDNAMGSYRQAPGKERELVAAITSGGSTNYADSVKGRFTISRDNAKNTVYLQMNSLKPEDTAVYYCAYDRVPLKTRFYYFPWGYDYWGQGTQVTVSS”: the “polyreactivity (PSR sort gate)” value was “low polyreactivity”. As for “QVQLVESGGGLVQAGGSLRLSCAASGSIFYTNAMGWYRQAPGKEREFVAGITRRGTSTNYADSVKGRFTISRDKAKNTVYLQMNSQKPEDTAVYYCNARYYLYWGQGTQVTVSS”, the “polyreactivity (PSR sort gate)” value was “low polyreactivity”.

With “QVQLVESGGGLVQAGGSLRLSCAASGSTFQTYAMGWYRQPPGKERELVAALNWRSGSTYYADSVKGRFTISRDNATNTVYLLMTSVKPEDTAVYDCARRSTGYTFDVSSMDYWGQGTQVTLSS”, the “polyreactivity (PSR sort gate)” value is on record as “low polyreactivity”. Turning to “QVKLVESGGGLVQAGGSLRFTCAASGRTFGSNAMGWYRQAPGKERELVAVITTSGGSTYYADSVKGRFTISRDNAKNTVYLQMISLKPEDTAVYSCAKRVATGYKSYGYGYWGQGTQVTVSS”, the “polyreactivity (PSR sort gate)” value is listed as “high polyreactivity”. Under “QVQLLESGGGLVQAGGSLRLSCAASGRTFRRYAMGWYRQAPGKERELVAAISYSGTTTYYADSVKGRFTISRDNAKNTVYLQMNSLKPEDTAVYYCNKATAYGLDYWGQGTQVTVSS” stands “high polyreactivity”; under “QVQLVESGGGLVQAGGSLRLSCAASGSIFSFYAMGWYRQAPGKERELVASITRRGGSTSYADSVKGRFTISRDNAKNTVYLQMNSLKPEDTAVYYCATESKFISVQRVGYYYVKFDYWGQGTQVTVSS”, “high polyreactivity”; under “QVQLVESGGGLVQAGGSLRLSCAASGSTFGWYVMGWYRQAPGKEREYVASISGSGGSTYYADSVKGRFTISRDNAKNTVYLQMNSLKPEDTAVYYCAAETGWYDDWSIYDYWGHGTQVTVSS”, “low polyreactivity”.

Turning to “QVQLVESGGGLVQAGGSLRLSCAASGRTFYGNAMGWYRQAPGKERELVAAITSGGGSTRYADSVKGRFTISRDNAKNSVYLQMNSLKPEDTAVYYCAALYWYEYTYLEYDYWGQGTQVTVSS”, the “polyreactivity (PSR sort gate)” value is given as “high polyreactivity”. Under “QVQLVESGGGLVQAGGSLRLSCAASGIIFVRYTMGWYRQAPGKERELVAAISSSGGSTYYADSVKGRFTISRDNAKNTVYLQMNSLKPEDTAVYYCNAEIRDNNVGYYTDYDYWGQGTQVTVSS” stands “high polyreactivity”; under “QVQLVESGGGLVQAGGSLRLSCAASGRIFTRNAMGWYRPAPGKERELVAAISSRGGSTYYADSVKGRFTISRDNAKNTVYLQMNSLKPEDTAVYYCAAGYWATYDYWGQGTQVTVSS”, “high polyreactivity”; under “QVQLVESGGGLVQAGGSLRLSCAASGSIFKNYAMGWSRQSPGKERELVASITTGASTNYADSVKGRFTISRDNAKNTVYLQMNSLKPEDTAVYYCNADRYYSHYSYYYWGQGTQVTVSS”, “high polyreactivity”. Under “QVNLVESGGGLVLAGGSLRLSCAASGVTYGNNAMGWYRQAPGKEREFVATISRRGGSTYYADSVMGRFTISRDNAKNTVYLQMNRLKPEDTAVYYCDVDRAGIKFAAGYDYWGQGTQVTVSS” stands “high polyreactivity”; under “QVQLVESGGGLVQAGGSLRLSCAASGLIFRNYAMGWYRQAPGKERELVAAISSGGDNTYYADSVKGRFTISRDNAKNTVYLQMNSLKPEDTAVYYCAAGRYVGPSYYAYGYWGQGTQVTVSS”, “high polyreactivity”.

Consider “QVQLVESRGGLVQAGGSLRLSCAASGFTFWDNVIGWYRQAPGKERELVAAISNSGGRTYYADSVKGRFTISRDNEKNTVYLQMNILKPEDTAVYYCARYGRRHGYPILDYWGQGTQVTVSS”, for which the “polyreactivity (PSR sort gate)” value is listed as “high polyreactivity”. Regarding “QVQLVESGGGLVQAGGSLRLSCAASGTFFIYAMGWYRQAPGKERELVATISSGGSTNYADSVKGRFTISRDNAKNTVYLQMNSLKPEDTAVYYCAAEWLYPHDGGYPRPMDYWGQGTQVTVSS”, the “polyreactivity (PSR sort gate)” value was “low polyreactivity”.

For the sequence “QVQHVESGGGLVQAGGSLRLSCAASGRIFGYYTMGWYRQAPGKERELVATIDWSGDSTYYADSVKGRFTISRDNAKNTVYLQMNSLKPEDTAVYYCAKRYYLYHYDSWGQGTQVTVSS”, the “polyreactivity (PSR sort gate)” value is given as “low polyreactivity”.

Consider “QVQLVESGGGLVQAGGSLRLSCAASGLTFFTYVMGWYRQAPGKERELVASISERGGSTFYADSVKGRFTISRDNAKNTVYLQMNSLKPEDTAVYYCATVSQSFKYRYRWRAAASDYWGQGTQVTVSS”, for which the “polyreactivity (PSR sort gate)” value was “high polyreactivity”. In the case of “QVQLVETGGGLVQAGGSLRLSCAASGRIFGSYAMGWYRQAPGKERELVASIRSGGRTKYADSVKGRFTISRDNAKNTVYFQMNSLKPEDTAVYYCAVPIEWDYGYWGQGTQVTVSS” it was “low polyreactivity”; in that of “QVQLVESGGGLVQAGGSLRLSCAASGRTFGIYAMGWYRQAPGKEREMVAAISRGGNTYADSVKGRFTISRDNAKNTVYLQMNSLKQEDTAVYYCAAYSSYYVHRFQHYDYWGQGTQVTVSS”, “high polyreactivity”; in that of “QVQLVESGGGLVQAGGSLRLSCAASGRIFGDYAMGWYRQAPGKERELVAAISYSGGSTYYADSVKGRFTISRDNAKNTVYLQMNSLKPEDTAVYYCNKRWYTYGRYGVQGYDYWGQGTQVTVSS”, “high polyreactivity”. In the case of “QVQLVESGGGLVQAGGSLRLSSAASGRTFYSNAMGWYRQAPGKERELVAAITRGASTKYADSVKGRFTISRDNAKNSVYLQMNSLKPEDTAVYYCDTARYPRYIYDYWGQGTQVTVSS”, the “polyreactivity (PSR sort gate)” value is “low polyreactivity”.
